According to US8840892B2, “Method of administering antibiotic therapy for treating intracellular infectious diseases” (Universidad Nacional Autónoma de México, priority 2003, dated 2014):

Experiments:
[1] = mouse, in vivo
[2] = test system: Mycobacterium tuberculosis; test: experimental model of pulmonary tuberculosis in BALB/c mice; type: in vivo
PGE formation (COX-2) = test: inhibition of PGE formation by selective COX-2 inhibitors
TGF-β = settings: recombinant soluble form, in vitro; cited from earlier work

Molecule: COc1ccc2c(c1)c(CC(=O)O)c(C)n2C(=O)c1ccc(Cl)cc1 [indometacine]
- gastric side effect [1]: extensive erosive gastritis

Molecule: O=C(O)c1cccnc1Nc1cccc(C(F)(F)F)c1 [niflumic acid, reference compound]
- bacteria colony forming units (CFU) in lung ([2]; mouse, in vivo): decreased significantly
- decrease of the area affected by pneumonia in relation to the control group ([2]; mouse, in vivo): 25%
- expression of IL-2, TNF-α, IFN-γ and nitric acid synthetase (increase) and interleukin 10 (decrease) ([2]; mouse, in vivo): same pattern
- inhibition of the formation of PGE (PGE formation (COX-2)): 98%

B1: soluble betaglycan: soluble (recombinant) ectodomain of betaglycan, TGF-β type III receptor; natural antagonist of TGF-β (protein, UniProt Q03167 21-787, looked up)
extracellular domain: GPEPGALCELSPVSASHPVQALMESFTVLSGCASRGTTGLPQEVHVLNLRTAGQGPGQLQREVTLHLNPISSVHIHHKSVVFLLNSPHPLVWHLKTERLATGVSRLFLVSEGSVVQFSSANFSLTAETEERNFPHGNEHLLNWARKEYGAVTSFTELKIARNIYIKVGEDQVFPPKCNIGKNFLSLNYLAEYLQPKAAEGCVMSSQPQNEEVHIIELITPNSNPYSAFQVDITIDIRPSQEDLEVVKNLILILKCKKSVNWVIKSFDVKGSLKIIAPNSIGFGKESERSMTMTKSIRDDIPSTQGNLVKWALDNGYSPITSYTMAPVANRFHLRLENNAEEMGDEEVHTIPPELRILLDPGALPALQNPPIRGGEGQNGGLPFPFPDISRRVWNEEGEDGLPRPKDPVIPSIQLFPGLREPEEVQGSVDIALSVKCDNEKMIVAVEKDSFQASGYSGMDVTLLDPTCKAKMNGTHFVLESPLNGCGTRPRWSALDGVVYYNSIVIQVPALGDSSGWPDGYEDLESGDNGFPGDMDEGDASLFTRPEIVVFNCSLQQVRNPSSFQEQPHGNITFNMELYNTDLFLVPSQGVFSVPENGHVYVEVSVTKAEQELGFAIQTCFISPYSNPDRMSHYTIIENICPKDESVKFYSPKRVHFPIPQADMDKKRFSFVFKPVFNTSLLFLQCELTLCTKMEKHPQKLPKCVPPDEACTSLDASIIWAMMQNKKTFTKPLAVIHHEAESKEKGPSMKEPNPISPPIFHGLDTLTV
modifications: extracellular domain
- extent of pneumonia (in words) ([2]; advanced phase of infection): increased
- bacteria colony forming units (CFU) in lung ([2]; after 30 days of treatment, vs untreated control): decreased significantly
- CFU less than control group ([2]; after 60 days of treatment): 50%
- more pneumonia than the control group ([2]; after two months of treatment, increase vs untreated control): 30%
- bacillary load / amount of tuberculosis bacilli in the lung (in words) ([2]; intraperitoneal, advanced phase of the disease): significant decrease
- neutralization of the effects of TGF-β (TGF-β): potent neutralizing agent
